The values below come from US20230407373A1 (priority 2020, published 2023).

First the molecules themselves.
B1: CHTOP (protein, UniProt Q9Y3Y2 2-248, looked up)
Chromatin target of PRMT1 …: AAQSAPKVVLKSTTKMSLNERFTNMLKNKQPTPVNIRASMQQQQQLASARNRRLAQQMENRPSVQAALKLKQSLKQRLGKSNIQARLGRPIGALARGAIGGRGLPIIQRGLPRGGLRGGRATRTLLRGGMSLRGQNLLRGGRAVAPRMGLRRGGVRGRGGPGRGGLGRGAMGRGGIGGRGRGMIGRGRGGFGGRGRGRGRGRGALARPVLTKEQLDNQLDAYMSKTKGHLDAELDAYMAQTDPETND
B2: TIA1 (protein, UniProt P31483 1-386, looked up)
Cytotoxic granule associated …: MEDEMPKTLYVGNLSRDVTEALILQLFSQIGPCKNCKMIMDTAGNDPYCFVEFHEHRHAAAALAAMNGRKIMGKEVKVNWATTPSSQKKDTSSSTVVSTQRSQDHFHVFVGDLSPEITTEDIKAAFAPFGRISDARVVKDMATGKSKGYGFVSFFNKWDAENAIQQMGGQWLGGRQIRTNWATRKPPAPKSTYESNTKQLSYDEVVNQSSPSNCTVYCGGVTSGLTEQLMRQTFSPFGQIMEIRVFPDKGYSFVRFNSHESAAHAIVSVNGTTIEGHVVKCYWGKETLDMINPVQQQNQIGYPQPYGQWGQWYGNAQQIGQYMPNGWQVPAYGMYGQAWNQQGFNQTQSSAPWMGPNYGVQPPQGQNGSMLPNQPSGYRVAGYETQ
B3: SYNCRIP: host protein, UniProt O60506 (protein, UniProt O60506 2-623, looked up)
Heterogeneous nuclear …: ATEHVNGNGTEEPMDTTSAVIHSENFQTLLDAGLPQKVAEKLDEIYVAGLVAHSDLDERAIEALKEFNEDGALAVLQQFKDSDLSHVQNKSAFLCGVMKTYRQREKQGTKVADSSKGPDEAKIKALLERTGYTLDVTTGQRKYGGPPPDSVYSGQQPSVGTEIFVGKIPRDLFEDELVPLFEKAGPIWDLRLMMDPLTGLNRGYAFVTFCTKEAAQEAVKLYNNHEIRSGKHIGVCISVANNRLFVGSIPKSKTKEQILEEFSKVTEGLTDVILYHQPDDKKKNRGFCFLEYEDHKTAAQARRRLMSGKVKVWGNVGTVEWADPIEDPDPEVMAKVKVLFVRNLANTVTEEILEKAFSQFGKLERVKKLKDYAFIHFDERDGAVKAMEEMNGKDLEGENIEIVFAKPPDQKRKERKAQRQAAKNQMYDDYYYYGPPHMPPPTRGRGRGGRGGYGYPPDYYGYEDYYDYYGYDYHNYRGGYEDPYYGYEDFQVGARGRGGRGARGAAPSRGRGAAPPRGRAGYSQRGGPGSARGVRGARGGAQQQRGRGVRGARGGRGGNVGGKRKADGYNQPDSKRRQTNNQNWGSQPIAQQPLQGGDHSGNYGYKSENQEFYQDTFGQQWK
B4: HNRNPC (protein, UniProt P07910 2-306, looked up)
Heterogeneous nuclear …: ASNVTNKTDPRSMNSRVFIGNLNTLVVKKSDVEAIFSKYGKIVGCSVHKGFAFVQYVNERNARAAVAGEDGRMIAGQVLDINLAAEPKVNRGKAGVKRSAAEMYGSVTEHPSPSPLLSSSFDLDYDFQRDYYDRMYSYPARVPPPPPIARAVVPSKRQRVSGNTSRRGKSGFNSKSGQRGSSKSGKLKGDDLQAIKKELTQIKQKVDSLLENLEKIEKEQSKQAVEMKNDKSEEEQSSSSVKKDETNVKMESEGGADDSAEEGDLLDDDDNEDRGDDQLELIKDDEKEAEEGEDDRDSANGEDDS
B5: UBAP2L (protein, UniProt Q14157 1-1087, looked up)
Ubiquitin-associated protein …: MMTSVGTNRARGNWEQPQNQNQTQHKQRPQATAEQIRLAQMISDHNDADFEEKVKQLIDITGKNQDECVIALHDCNGDVNRAINVLLEGNPDTHSWEMVGKKKGVSGQKDGGQTESNEEGKENRDRDRDYSRRRGGPPRRGRGASRGREFRGQENGLDGTKSGGPSGRGTERGRRGRGRGRGGSGRRGGRFSAQGMGTFNPADYAEPANTDDNYGNSSGNTWNNTGHFEPDDGTSAWRTATEEWGTEDWNEDLSETKIFTASNVSSVPLPAENVTITAGQRIDLAVLLGKTPSTMENDSSNLDPSQAPSLAQPLVFSNSKQTAISQPASGNTFSHHSMVSMLGKGFGDVGEAKGGSTTGSQFLEQFKTAQALAQLAAQHSQSGSTTTSSWDMGSTTQSPSLVQYDLKNPSDSAVHSPFTKRQAFTPSSTMMEVFLQEKSPAVATSTAAPPPPSSPLPSKSTSAPQMSPGSSDNQSSSPQPAQQKLKQQKKKASLTSKIPALAVEMPGSADISGLNLQFGALQFGSEPVLSDYESTPTTSASSSQAPSSLYTSTASESSSTISSNQSQESGYQSGPIQSTTYTSQNNAQGPLYEQRSTQTRRYPSSISSSPQKDLTQAKNGFSSVQATQLQTTQSVEGATGSAVKSDSPSTSSIPPLNETVSAASLLTTTNQHSSSLGGLSHSEEIPNTTTTQHSSTLSTQQNTLSSSTSSGRTSTSTLLHTSVESEANLHSSSSTFSTTSSTVSAPPPVVSVSSSLNSGSSLGLSLGSNSTVTASTRSSVATTSGKAPPNLPPGVPPLLPNPYIMAPGLLHAYPPQVYGYDDLQMLQTRFPLDYYSIPFPTPTTPLTGRDGSLASNPYSGDLTKFGRGDASSPAPATTLAQPQQNQTQTHHTTQQTFLNPALPPGYSYTSLPYYTGVPGLPSTFQYGPAVFPVAPTSSKQHGVNVSVNASATPFQQPSGYGSHGYNTGVSVTSSNTGVPDISGSVYSKTQQSFEKQGFHSGTPAASFNLPSALGSGGPINPATAAAYPPAPFMHILTPHQQPHSQILHHHLQQDGQTGSGQRSQTSSIPQKPQTNKSAYNSYSWGAN
B6: PCBP2 (protein, UniProt Q15366 1-365, looked up)
Poly(rC)-binding protein 2: MDTGVIEGGLNVTLTIRLLMHGKEVGSIIGKKGESVKKMREESGARINISEGNCPERIITLAGPTNAIFKAFAMIIDKLEEDISSSMTNSTAASRPPVTLRLVVPASQCGSLIGKGGCKIKEIRESTGAQVQVAGDMLPNSTERAITIAGIPQSIIECVKQICVVMLETLSQSPPKGVTIPYRPKPSSSPVIFAGGQDRYSTGSDSASFPHTTPSMCLNPDLEGPPLEAYTIQGQYAIPQPDLTKLHQLAMQQSHFPMTHGNTGFSGIESSSPEVKGYWGLDASAQTTSHELTIPNDLIGCIIGRQGAKINEIRQMSGAQIKIANPVEGSTDRQVTITGSAASISLAQYLINVRLSSETGGMGSS
B7: PURB (protein, UniProt Q96QR8 2-312, looked up)
Transcriptional regulator …: ADGDSGSERGGGGGPCGFQPASRGGGEQETQELASKRLDIQNKRFYLDVKQNAKGRFLKIAEVGAGGSKSRLTLSMAVAAEFRDSLGDFIEHYAQLGPSSPEQLAAGAEEGGGPRRALKSEFLVRENRKYYLDLKENQRGRFLRIRQTVNRGGGGFGAGPGPGGLQSGQTIALPAQGLIEFRDALAKLIDDYGGEDDELAGGPGGGAGGPGGGLYGELPEGTSITVDSKRFFFDVGCNKYGVFLRVSEVKPSYRNAITVPFKAWGKFGGAFCRYADEMKEIQERQRDKLYERRGGGSGGGEESEGEEVDED

One assay concerns HCoV-OC43 gRNA and sgRNA. The assay is classed as binding. To be noted: 36 hpi; type n_36_v; tested against no-probe control; FDR<10%.
Consider B1, for which the “target (unweighted spectral count, OC43 Probe II capture)” value is 5.

B2: the “target (unweighted spectral count, OC43 Probe II capture)” value stood at 6.

As for B3, the “target (unweighted spectral count, OC43 Probe II capture)” value is on record as 97.

For B4, the “target (unweighted spectral count, OC43 Probe II capture)” value is listed as 69.

B5: the “target (unweighted spectral count, OC43 Probe II capture)” value is recorded as 5.

Still in this assay, the particulars now being: OC43 Probe II, 12 hpi (type n_12_v), infected cells; tested against no-probe control.
For B3, the “target (unweighted spectral count)” value turned out to be 33.

Consider B4, for which the “target (unweighted spectral count)” value is recorded as 30.

The same assay, now with this note: OC43 Probe II, 24 hpi (type n_24_v), infected cells; tested against no-probe control.
In the case of B6, the “target (unweighted spectral count)” value came out at 10.

As to B3, the “target (unweighted spectral count)” value was found to be 55.

As for B4, the “target (unweighted spectral count)” value is 40.

The assay is the same for the next values; noted with them: type n_48_v; 48 hpi; OC43 Probe II capture on infected cells.
On to B1, for which the “target (unweighted spectral count, OC43 Probe II)” value was determined as 6.

On to B7, for which the “target (unweighted spectral count, OC43 Probe II)” value was 5.

As to B3, the “target (unweighted spectral count, OC43 Probe II)” value worked out at 87.

For B4, the “target (unweighted spectral count, OC43 Probe II)” value is reported as 88.

Staying with this assay, now noted: type n_48_v; 48 hpi; no-probe control on infected cells.
With B1, the “background (unweighted spectral count, no-probe control)” value is on record as 1.

Regarding B7, the “background (unweighted spectral count, no-probe control)” value was 1.

Consider B3, for which the “background (unweighted spectral count, no-probe control)” value came out at 7.

Turning to B4, the “background (unweighted spectral count, no-probe control)” value is listed as 19.

Staying with this assay, now noted: type s_36_m; HCoV-OC43-infected HCT-8 cells, 36 hpi, Probe II.
For the molecule B3, the “target (spectral count)” value was 97.

Still in this assay, the particulars now being: type s_36_m; uninfected-probe control, 36 hpi, Probe II.
In the case of B3, the “background (spectral count)” value is recorded as 23.

Another assay deals with SARS-CoV-2 gRNA and sgRNAs. Type of assay: binding. To be noted: Probe II capture; […]; LC-MS/MS LFQ.
Consider B2, for which the “target (unweighted spectral count in RNP capture)” value is given as 11.

Regarding B3, the “target (unweighted spectral count in RNP capture)” value amounted to 159.

For B4, the “target (unweighted spectral count in RNP capture)” value stood at 75.

Turning to B5, the “target (unweighted spectral count in RNP capture)” value turned out to be 17.

Staying with this assay, now noted: […]; LC-MS/MS label-free quantification; probe pool not given.
As for B1, the “target (unweighted spectral count of the protein in the RNP capture experiment)” value turned out to be 5.

With B7, the “target (unweighted spectral count of the protein in the RNP capture experiment)” value is listed as 5.

The assay is the same for the next values; noted with them: no-probe control pull-down, used as background for Probe II.
As to B6, the “background (unweighted spectral count in control)” value is listed as 1.

Turning to B2, the “background (unweighted spectral count in control)” value was 1.

In the case of B3, the “background (unweighted spectral count in control)” value came out at 1.

For the molecule B4, the “background (unweighted spectral count in control)” value was 2.

Turning to B5, the “background (unweighted spectral count in control)” value was 1.

Still in this assay, the particulars now being: protein background of the control (e.g. no-probe) experiment; […].
On to B1, for which the “back-ground (unweighted spectral count of the protein in the control experiment)” value came to 1.

In the case of B7, the “back-ground (unweighted spectral count of the protein in the control experiment)” value is listed as 1.

The next assay has as its system gRNA of HCoV-OC43. The assay is classed as binding. To be noted: type n_48_v: 48 hours post-infection, infected cells, OC43 Probe I; unweighted spectral count.
Consider B1, for which the “target (spectral count, OC43 Probe I RNP capture)” value is 6.

As to B7, the “target (spectral count, OC43 Probe I RNP capture)” value is recorded as 5.

With B3, the “target (spectral count, OC43 Probe I RNP capture)” value came out at 88.

For B5, the “target (spectral count, OC43 Probe I RNP capture)” value was 6.

The same assay, now with this note: type n_48_v: 48 hours post-infection, no-probe control on infected cells.
As to B1, the “background (spectral count, no-probe control)” value came to 1.

B7: the “background (spectral count, no-probe control)” value is reported as 1.

In the case of B3, the “background (spectral count, no-probe control)” value worked out at 7.

In the case of B4, the “background (spectral count, no-probe control)” value came out at 19.

As for B5, the “background (spectral count, no-probe control)” value was determined as 1.
